The text below walks through data of patent US20120149881A1 (Genentech, published 2012).

Where a chain is given by its changes, count along the chain named. Values joined by “and” are separate entries in the source; they are usually repeats but may differ in a detail not shown here. Identical values can stand only once.

The term Kd denotes the concentration at which binding is half-saturated. What is called IC50 is the concentration needed to halve the response being measured.

The target in experiment [1] is T1, human IgE with the M1′ sequence (long form of membrane IgE) expressed on transduced BJAB or Daudi cells (human, UniProt P01854 116-546).
T1 construct: Full-length heavy and light chains of the U266 IgE B cell receptor, retrovirally expressed; also called IgE/M1′; IgE-M1′
T1 sequence (P01854 116-546 I515L limits assumed): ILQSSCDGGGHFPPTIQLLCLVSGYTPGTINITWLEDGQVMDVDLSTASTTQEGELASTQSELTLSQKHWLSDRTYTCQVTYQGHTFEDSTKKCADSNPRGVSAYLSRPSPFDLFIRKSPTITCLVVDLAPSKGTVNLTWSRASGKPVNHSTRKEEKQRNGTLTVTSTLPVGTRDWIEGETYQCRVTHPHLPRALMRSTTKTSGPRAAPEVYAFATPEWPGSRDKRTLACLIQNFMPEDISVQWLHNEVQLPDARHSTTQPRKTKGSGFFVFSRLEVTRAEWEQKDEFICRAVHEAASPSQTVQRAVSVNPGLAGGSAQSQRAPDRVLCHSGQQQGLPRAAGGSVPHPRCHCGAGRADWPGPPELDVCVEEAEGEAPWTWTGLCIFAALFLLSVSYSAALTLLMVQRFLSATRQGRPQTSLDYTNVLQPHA
Put plainly: Scatchard analysis on cells expressing human IgE/M1′. The method, then: (§1) The BJAB or Daudi cells expressing various forms of IgE with or without M1′ (Human, Rhesus, Cyno) were prepared for binding in cold Binding buffer composed of base media, with 10 mM HEPES pH 7.4, and 2% FBS as well as 40 ug/ml human IgG. Cells are diluted to concentration of 1.7×10⁶ cells/ml, and kept on ice until they are added to the assay. The proteins/antibodies are iodinated with the Iodogen method. Various concentrations of cold protein are prepared in triplicate, using a 1:2 dilution starting with the saturation concentration and ending at a concentration of zero, with a total of 14 concentrations. Hot protein of a single concentration is added to all dilutions compete with the cold protein. Lastly the cells are added to the hot and cold protein mixture, 250,000 cells per sample were used. Assay is kept at 4° C. for 4 hours, shaking. Each sample is then collected and filtered on membrane, washed at least 3 times with binding buffer, allowed to dry and then counted for 1 minute using Perkin Elmer Wizard 1470 Auto Gamma Counter.

Experiment [2] deals with T1, human IgE with the M1′ sequence (long …). Put plainly: competitive ECL binding on BJAB-IgE/M1′ cells vs biotinylated 26A11 or 47H4, 1st IC50 column.
Experiment [3] has the same target. Put plainly: Scatchard Human M1' (nM), overall Mean of two experiments. Here is the method: as §1
Experiment [4] shares this target. Put plainly: Scatchard Human M1' (nM), column Mean of exp. 1. The method, then:
In addition to relative affinity determinations by antibody titration and FACs detection, we also determined affinities of selected anti-MP antibodies to BJAB cell lines expressing IgE long form using Scatchard analysis. BJAB-Long cells were prepared for binding in cold Binding buffer composed of base media, with 10 mM HEPES pH 7.4, and 2% FBS as well as 40 μg/ml human IgG. Cells were diluted to a concentration of 1.7×10⁶ cells/ml, and kept on ice until added to the assay. The antibodies were iodinated with Iodogen method. Various concentrations of unlabelled antibody were prepared in triplicate, using a 1:2 dilution starting with the saturation concentration and ending at a concentration of zero, with a total of 14 concentrations. […] Each sample was then collected and filtered on a membrane, washed at least 3 times with binding buffer, allowed to dry and then measured for 1 minute using a Perkin Elmer Wizard 1470 Auto Gamma Counter.
The BJAB or Daudi cells expressing various forms of IgE with or without M1′ (Human, Rhesus, Cyno) were prepared for binding in cold Binding buffer composed of base media, with 10 mM HEPES pH 7.4, and 2% FBS as well as 40 ug/ml human IgG. […] Each sample is then collected and filtered on membrane, washed at least 3 times with binding buffer, allowed to dry and then counted for 1 minute using Perkin Elmer Wizard 1470 Auto Gamma Counter.

Experiment [5] has as its target T2, human IgE CH3-CH4-M1′/Fc fusion protein (human).
T2 construct: also called M1′ (immobilized)
The experiment in a line: SPR Biacore A100, M1′ immobilized.

In experiment [6] the target is T1, human IgE with the M1′ sequence (long …). The experiment in a line: Scatchard Human M1' (nM), column Mean of exp. 2. The method, then:
as §1

Experiment [7] has the same target. Put plainly: Scatchard, iodinated antibody on IgE/M1′ cells.
Another experiment has as its target T3, M1′ peptide 8 (human).
T3 peptide: PRAAGGSVPHPRCH
Put plainly: ELISA on coated antigen, relative OD450/650. The method, then: (§2) 15 peptides were generated spanning the sequence surrounding and including human M1′ (Clifford Quan) (FIG. 5A). Peptides were resuspended in either dH20 or 50% DMSO. […] 0.05% Tween-20, 10 ppm Proclin., 0.2% BgG, 0.25% Chaps, 5 mM EDTA, 0.35M NaCl]. […] Plates were then incubated for 2 hours at room temperature. Murine antibody plates were washed 3 times and then anti-mouse IgG1-Biotin (BD Biosciences (A85-1) #553441) was added (1:10,000, 100 μl per well) and incubated for 1 hour at RT. Following 3 washes, SA-HRP (BD Biosciences #554066) was added (1:20,000, 100 μl per well) and incubated for 1 hour. Human IgG1 antibody plates were washed as before and anti-hulgG.Fc-HRP (Jackson ImmunoResearch (#109-036-098)) was added (1:10,000, 100 μl per well) and incubated for 1 hour at RT. Once secondary incubations were complete, plates were washed 6 times and TMB substrate (BD OptEIA #555214) was added (100 μl per well). The substrate-HRP reaction was stopped with 1M H3PO4 after ˜4 minutes. Plates were then read at 450/650. Data was represented as relative OD (OD₄₅₀/CD650).
For orientation: ELISA stands for enzyme-linked immunosorbent assay.

The target of another experiment is T4, M1′ peptide 7 (human).
T4 peptide: GQQQGLPRAAGGSVP
The experiment in a line: ELISA on coated antigen, relative OD450/650. Here is the method: as §2

Experiment [8] addresses T2, human IgE CH3-CH4-M1′/Fc fusion protein. Put plainly: SPR Biacore 2000, IgG immobilized, M1′-Fc analyte. On the technique in general: In SPR one partner is held on a chip, and binding of the other changes the refractive index at the surface.
The target of experiment [9] is T1, human IgE with the M1′ sequence (long …). Put plainly: Scatchard Human M1' (nM), column Measured; iodinated antibody on cells expressing human IgE/M1'. Here is the method: as §1
Experiment [10] has the same target. Put plainly: Scatchard Human M1' (nM), overall Mean of three experiments. The method, then:
as §1

Experiment [11] shares this target. The experiment in a line: number printed in the titration panel; FIG. 3M calls these numbers 'Scatchard Results' (BJAB-Long cells). The method, then: In addition to relative affinity determinations by antibody titration and FACs detection, we also determined affinities of selected anti-MP antibodies to BJAB cell lines expressing IgE long form using Scatchard analysis. BJAB-Long cells were prepared for binding in cold Binding buffer composed of base media, with 10 mM HEPES pH 7.4, and 2% FBS as well as 40 μg/ml human IgG. Cells were diluted to a concentration of 1.7×10⁶ cells/ml, and kept on ice until added to the assay. The antibodies were iodinated with Iodogen method. Various concentrations of unlabelled antibody were prepared in triplicate, using a 1:2 dilution starting with the saturation concentration and ending at a concentration of zero, with a total of 14 concentrations. Iodinated antibody of a single concentration was added to all dilutions of the competitor unlabelled antibody. Lastly 250,000 BJAB-Long cells were added to each mixture of iodinated and unlabelled antibody. The samples were incubated at 4° C. for 4 hours, shaking. Each sample was then collected and filtered on a membrane, washed at least 3 times with binding buffer, allowed to dry and then measured for 1 minute using a Perkin Elmer Wizard 1470 Auto Gamma Counter.

Experiment [12] deals with T5, cyno IgE/M1′ expressed on transduced Daudi cells (human IgE/primate M1′ cassette, cynomolgus) (cynomolgus monkey).
T5 construct: The construct is described as a 'human IgE/primate M1′ cassette'; also called Cyno M1′
T5 chain: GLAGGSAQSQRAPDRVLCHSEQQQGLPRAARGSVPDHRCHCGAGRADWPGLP
The experiment in a line: Scatchard analysis on cells expressing cyno IgE/M1′.

Another experiment concerns the target T6, M1′ peptide 4 (human).
T6 peptide: SAQSQRAPDRVLCHS
The experiment in a line: ELISA on coated antigen, relative OD450/650. Here is the method:
as §2

Experiment [13] concerns the target T1, human IgE with the M1′ sequence (long …). The experiment in a line: competitive ECL binding on BJAB-IgE/M1′ cells vs biotinylated 26A11 or 47H4, 2nd IC50 column.
The target is the same in experiment [14]. The experiment in a line: Scatchard Human M1' (nM), column Mean of exp. 3. Here is the method: as §1
Experiment [15] has as its target T7, rhesus IgE/M1′ expressed on transduced Daudi cells (human IgE/primate M1′ cassette, rhesus) (rhesus monkey).
T7 construct: The construct is described as a 'human IgE/primate M1′ cassette'; also called Rhesus M1′
T7 chain: T5 chain with R38H
Put plainly: Scatchard analysis on cells expressing rhesus IgE/M1′.

Experiment [16] concerns the target T2, human IgE CH3-CH4-M1′/Fc fusion protein. Put plainly: SPR Biacore 2000, M1′-Fc immobilized.

T2 sequence (chain, as listed by the source limits assumed): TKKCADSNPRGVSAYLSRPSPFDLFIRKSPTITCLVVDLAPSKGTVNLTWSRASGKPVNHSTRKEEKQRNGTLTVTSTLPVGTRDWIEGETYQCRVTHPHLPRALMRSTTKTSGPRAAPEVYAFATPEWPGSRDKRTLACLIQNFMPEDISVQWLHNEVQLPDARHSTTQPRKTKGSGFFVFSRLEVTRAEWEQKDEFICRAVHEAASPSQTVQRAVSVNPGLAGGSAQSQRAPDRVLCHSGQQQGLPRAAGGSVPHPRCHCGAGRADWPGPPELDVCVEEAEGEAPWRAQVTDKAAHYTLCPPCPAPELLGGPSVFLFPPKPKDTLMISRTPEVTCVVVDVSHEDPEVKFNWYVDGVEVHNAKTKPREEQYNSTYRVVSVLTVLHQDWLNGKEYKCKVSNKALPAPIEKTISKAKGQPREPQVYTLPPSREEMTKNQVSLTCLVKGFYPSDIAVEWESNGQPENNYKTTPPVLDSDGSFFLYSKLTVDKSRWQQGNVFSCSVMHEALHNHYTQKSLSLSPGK

B1: murine anti-IgE/M1′ antibody 26A11 (antibody, V domains shown)
VH: EVQLQQSGPELVKPGASVKMSCKASGYTFTDYYMMWVKQSHGKSLEWIGDINPNNYDTSYNQKFKGKATLTVDKSSSTAYIQLNSLTSEDSAVYYCASKAYWGQGTLVTVSA
VL: DIQMTQTTSSLSASLGDRVTITCRSSQDISNSLNWYQQKPDGPVKLLIYSTSRLHSGVPSRFSGSGSGTDYSLTISNLEQEDLATYFCQQGHTLPWTFGGGTKVEIKR
notes: mIgG1 hybridoma antibody; also called mu26A11; 26A11 mIgG1
For the molecule B1, the Kd came to 2.3 nM in experiment [1]; 1.94 nM in experiment [3]; 2.14 nM in experiment [4]; 0.3 nM in experiment [5]; 1.75 nM in experiment [6]; 1.6 nM in experiment [7]. The Kd in experiment [8] is 5.1 nM; in experiment [9] it was 1.68 nM and 2.59 nM and 1.2 nM. Also, the IC50 in [2] was determined as 12 nM. The binding result with M1′ peptide 8 and in the experiment with M1′ peptide 7 was “binds” throughout.

B2: murine anti-IgE/M1′ antibody 47H4 (antibody, V domains shown)
VH: EVKLVESGGGLVQPGGSRKLSCAASGFTFSDYGMAWVRQAPGKGPEWVAFISDLAYTIYYADTVTGRFTISRENAKNTLYLEMSSLRSEDTALYYCARDNWDAMDYWGQGTSVTVSS
VL: DIVLTQTPLSLPVSLGDQASISCRSSQSLVHNNGNTYLHWYLQKPGQSPKLLIYKVSNRFSGVPDRFSGSGSGTDFTLKISRLEAEDLGVYFCSQNTLVPWTFGGGTKVEIKR
notes: mIgG1 hybridoma antibody; also called mu47H4; 47H4 mIgG1
Turning to B2, the Kd in experiment [1] was determined as 0.79 nM; in experiment [10], 0.57 nM; in [5], 5.6 nM; in experiment [6] it was 0.54 nM; in experiment [11], 0.39 nM; in [12] it was 0.97 nM. Further, the Kd in [7] is 0.4 nM; in experiment [8] it was 1.5 nM; in experiment [14], 0.39 nM; in [15] it was 0.77 nM; in experiment [16], 12 nM. For the same molecule, the figures for the IC50 in [2] and in experiment [13] were 62 nM and 57 nM, respectively. The binding result with M1′ peptide 4 is listed as “binds”.
